For test [1], the target named is T1, rHuman Erythropoietin R/Fc Chimera, CF (R&D Systems Cat#963-ER) (human, UniProt P19235 25-250).
T1 construct: also called EPO R/Fc; Epo R; Fc part of the bought chimera not given
T1 sequence: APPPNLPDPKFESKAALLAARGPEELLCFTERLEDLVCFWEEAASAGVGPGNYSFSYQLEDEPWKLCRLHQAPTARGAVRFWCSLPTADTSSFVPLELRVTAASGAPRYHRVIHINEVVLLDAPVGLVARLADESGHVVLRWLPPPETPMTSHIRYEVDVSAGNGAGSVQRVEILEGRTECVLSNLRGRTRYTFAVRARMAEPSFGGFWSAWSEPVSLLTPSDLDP
Nature of the test: MSD ECL multi-spot plate; Fab 24.5 nM; blank spot 149.

The target in test [2] is T2, rHuman HGF R/c-MET/Fc Chimera, CF (R&D Systems Cat#358-MT/CF) (human, UniProt P08581 25-932).
T2 construct: also called HGF R/Fc; hepatocyte growth factor receptor; Fc part of the bought chimera not given
The description is as above.

Test [3] has as its target T3, rHuman CD44/Fc Chimera, CF (R&D Systems Cat#3660-CD) (human, UniProt P16070 21-220).
T3 construct: Fc part of the bought chimera not given
Described as above.

Test [4] addresses T4, rHuman P-Cadherin/Fc Chimera, CF (R&D Systems Cat#861-PC) (human, UniProt P22223 108-654).
T4 construct: Fc part of the bought chimera not given
The test is described as above.

The target of test [5] is T5, rHuman IGF-1 sR, (IGF-1 sR), CF (R&D Systems Cat#391-GR) (human, UniProt P08069 31-932).
T5 construct: also called insulin-like growth factor-1 soluble receptor; IGF-R1
The description is as above.

The target of test [6] is T6, rHuman ErbB2/Fc Chimera, CF (R&D Systems Cat#1129-ER) (human, UniProt P04626 23-652).
T6 construct: also called HER2/neu; human epidermal growth factor 2 receptor; Fc part of the bought chimera not given
The description is as above.

Test [7] deals with T1, rHuman Erythropoietin R/Fc Chimera, CF …. Nature of the test: MSD ECL multi-spot plate; Fab 392.5 nM; blank spot 338.
Test [8] has as its target T2, rHuman HGF R/c-MET/Fc Chimera, CF (R&D …). Described as above.
Test [9] has as its target T3, rHuman CD44/Fc Chimera, CF (R&D Systems …). The description is as above.
Test [10] has as its target T4, rHuman P-Cadherin/Fc Chimera, CF (R&D …). The test is described as above.
In test [11] the target is T5, rHuman IGF-1 sR, (IGF-1 sR), CF (R&D …). The description is as above.
For test [12], the target named is T6, rHuman ErbB2/Fc Chimera, CF (R&D …). The description is as above.
The target of test [13] is T1, rHuman Erythropoietin R/Fc Chimera, CF …. Nature of the test: MSD ECL multi-spot plate; Fab 98.1 nM; blank spot 210.
For test [14], the target named is T2, rHuman HGF R/c-MET/Fc Chimera, CF (R&D …). The test is described as above.
Test [15] concerns the target T3, rHuman CD44/Fc Chimera, CF (R&D Systems …). The description is as above.
Test [16] deals with T4, rHuman P-Cadherin/Fc Chimera, CF (R&D …). The test is described as above.
Test [17] deals with T5, rHuman IGF-1 sR, (IGF-1 sR), CF (R&D …). The test is described as above.
Test [18] deals with T6, rHuman ErbB2/Fc Chimera, CF (R&D …). The description is as above.
The target of test [19] is T1, rHuman Erythropoietin R/Fc Chimera, CF …. Nature of the test: MSD ECL multi-spot plate; Fab 1570 nM; blank spot 866.
In test [20] the target is T2, rHuman HGF R/c-MET/Fc Chimera, CF (R&D …). The test is described as above.
Test [21] deals with T3, rHuman CD44/Fc Chimera, CF (R&D Systems …). The description is as above.
In test [22] the target is T4, rHuman P-Cadherin/Fc Chimera, CF (R&D …). Described as above.
Test [23] concerns the target T5, rHuman IGF-1 sR, (IGF-1 sR), CF (R&D …). Described as above.
Test [24] deals with T6, rHuman ErbB2/Fc Chimera, CF (R&D …). The description is as above.
Test [25] concerns the target T7, rHuman Notch-1/Fc Chimera, CF (R&D Systems Cat#3647-TK) (human, UniProt P46531 19-526).
T7 construct: Bought Fc chimera; Fc part of the bought chimera not given
Nature of the test: MSD ECL multi-spot, Fab 0.21 uM, blank 529; row label 3 may be swapped with 4.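 Further: blank spot per well as comparator with Hit at signal to blank ratio of 4 or more.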

The target in test [26] is T8, rHuman EGF R/Fc Chimera, CF (R&D Systems Cat#344-ER) (human, UniProt P00533 25-645).
T8 construct: Bought Fc chimera; Fc part of the bought chimera not given
The test is described as above.

Test [27] addresses T9, rHuman HGF R/c-MET/Fc Chimera, CF (R&D Systems Cat#358-MT/CF) (human, UniProt P08581 25-932).
T9 construct: Bought Fc chimera; also called HGF R/Fc; Fc part of the bought chimera not given
Described as above.

Test [28] addresses T10, rHuman P-Cadherin/Fc Chimera, CF (R&D Systems Cat#861-PC) (human, UniProt P22223 108-654).
T10 construct: Bought Fc chimera; Fc part of the bought chimera not given
The description is as above.

Test [29] has as its target T11, rHuman Erythropoietin R/Fc Chimera, CF (R&D Systems Cat#963-ER) (human, UniProt P19235 25-250).
T11 construct: Bought Fc chimera; also called EPO R/Fc; EPOR; Fc part of the bought chimera not given
T11 sequence: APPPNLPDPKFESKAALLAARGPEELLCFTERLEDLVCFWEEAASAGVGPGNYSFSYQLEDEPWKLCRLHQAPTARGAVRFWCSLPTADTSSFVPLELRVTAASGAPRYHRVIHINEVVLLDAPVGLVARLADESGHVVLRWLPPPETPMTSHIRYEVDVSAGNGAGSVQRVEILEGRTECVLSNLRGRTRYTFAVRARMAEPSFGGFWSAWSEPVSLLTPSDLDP
Described as above.

The target in test [30] is T12, rHuman ErbB2/Fc Chimera, CF (R&D Systems Cat#1129-ER) (human, UniProt P04626 23-652).
T12 construct: Bought Fc chimera; also called HER2/neu; Fc part of the bought chimera not given
The description is as above.

In test [31] the target is T13, rHuman CD44/Fc Chimera, CF (R&D Systems Cat#3660-CD) (human, UniProt P16070 21-220).
T13 construct: Bought Fc chimera; Fc part of the bought chimera not given
Described as above.

Test [32] concerns the target T14, Recombinant Human DLL4 (R&D Systems Cat#1506-D4/CF) (human, UniProt Q9NR61 27-524).
T14 construct: Bought recombinant protein; also called rHuman DLL4; delta-like protein 4
The test is described as above.

For test [33], the target named is T15, rHuman IGF-1 sR (insulin-like growth factor-1 soluble receptor), CF (R&D Systems Cat#391-GR) (human, UniProt P08069 31-932).
T15 construct: Bought soluble receptor; also called IGF-R1
The description is as above.

B1: Fab VH1-46_IGHD3-10*01_IGHJ4*01 & O1_IGKJ1*01 (Fab, V domains shown)
VH: QVQLVQSGAEVKKPGASVKVSCKASGYTFTSYYMHWVRQAPGQGLEWMGIINPSGGSTSYAQKFQGRVTMTRDTSTSTVYMELSSLRSEDTAVYYCAREYYYGSGSYYNDYFDYWGQGTLVTVSS
VL: DIVMTQTPLSLPVTPGEPASISCRSSQSLLDSDDGNTYLDWYLQKPGQSPQLLIYTLSYRASGVPDRFSGSGSGTDFTLKISRVEAEDVGVYYCMQRIEFPSWTFGQGTKVEIK
notes: It was expressed in E. coli as a Fab; The heavy chain carries CH1 from Plasmid A with Flag and His tags; The light chain carries the kappa constant region from Plasmid C
As for B1, the ECL signal came to 4530 ECL signal in test [1]; 211 ECL signal in test [2]; 267 ECL signal in test [3]; 257 ECL signal in test [4]; 239 ECL signal in [5]; 241 ECL signal in [6]. For the same molecule, the ECL signal was found to be 5860 ECL signal in test [7]; 581 ECL signal in test [8]; 498 ECL signal in test [9]; 459 ECL signal in test [10]; 466 ECL signal in test [11]; 539 ECL signal in [12]. Further, the ECL signal turned out to be 5630 ECL signal in test [13]; 335 ECL signal in test [14]; 265 ECL signal in [15]; 347 ECL signal in [16]; 309 ECL signal in test [17]; 247 ECL signal in test [18]. The ECL signal was 6120 ECL signal in [19]; 1640 ECL signal in [20]; 1380 ECL signal in test [21]; 1790 ECL signal in [22]; 1430 ECL signal in [23]; 1260 ECL signal in [24].

B2: Fab VH6-1_IGHD3-3*01_IGHJ4*01 & V4-3_IGLJ4*01 (Fab, V domains shown)
VH: QVQLQQSGPGLVKPSQTLSLTCAISGDSVSSNSAAWNWIRQSPSRGLEWLGRTYYRSKWYNDYAVSVKSRITINPDTSKNQFSLQLNSVTPEDTAVYYCAREYYDFWSGYYTDYFDYWGQGTLVTVSS
VL: QPVLTQPTSLSASPGASARLTCTLRSGINLGSYRIFWYQQKPESPPRYLLSYYSDSSKHQGSGVPSRFSGSKDASSNAGILVISGLQSEDEADYYCMIWHSSASFVFGGGTQLIIL
notes: Expressed in E. coli as Fab: heavy chain with CH1 plus Flag and His tags from Plasmid A, lambda light chain constant region from Plasmid E; also called Fab No. 3
As to B2, the ECL signal worked out at 949 in test [25]; 815 in test [26]; 744 in [27]; 890 in test [28]; 1120 in test [29]; 9230 in test [30]. For the same molecule, the ECL signal is 837 in [31], 1070 in test [32] and 763 in test [33].

For the origin of these results see patent US20120058906A1 (published 2012).
